Values joined by “and” are separate entries in the source; they are usually repeats but may differ in a detail not shown here. Identical values can stand only once.
T1: N-terminal domain of hCD73 (residues 26-336 of human CD73), His-tagged (human, UniProt P21589 26-336)
T1 construct: also called N-hCD73; N-hCD73-his
T1 sequence: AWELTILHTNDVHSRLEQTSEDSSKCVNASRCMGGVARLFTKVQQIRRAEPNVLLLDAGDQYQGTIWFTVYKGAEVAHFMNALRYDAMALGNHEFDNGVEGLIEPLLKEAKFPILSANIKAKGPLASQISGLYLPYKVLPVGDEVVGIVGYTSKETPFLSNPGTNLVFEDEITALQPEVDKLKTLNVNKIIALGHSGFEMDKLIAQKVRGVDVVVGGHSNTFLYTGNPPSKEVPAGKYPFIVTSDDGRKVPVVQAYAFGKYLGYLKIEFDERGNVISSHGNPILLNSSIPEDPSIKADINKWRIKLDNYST

T2: human CD73 on cells (Calu6, NCI-H292, SK-MEL-24, human tumor cell lines, human B and T cells) (human, UniProt P21589 27-549)
T2 construct: Endogenous protein; also called endogenous CD73; cellular CD73
T2 sequence: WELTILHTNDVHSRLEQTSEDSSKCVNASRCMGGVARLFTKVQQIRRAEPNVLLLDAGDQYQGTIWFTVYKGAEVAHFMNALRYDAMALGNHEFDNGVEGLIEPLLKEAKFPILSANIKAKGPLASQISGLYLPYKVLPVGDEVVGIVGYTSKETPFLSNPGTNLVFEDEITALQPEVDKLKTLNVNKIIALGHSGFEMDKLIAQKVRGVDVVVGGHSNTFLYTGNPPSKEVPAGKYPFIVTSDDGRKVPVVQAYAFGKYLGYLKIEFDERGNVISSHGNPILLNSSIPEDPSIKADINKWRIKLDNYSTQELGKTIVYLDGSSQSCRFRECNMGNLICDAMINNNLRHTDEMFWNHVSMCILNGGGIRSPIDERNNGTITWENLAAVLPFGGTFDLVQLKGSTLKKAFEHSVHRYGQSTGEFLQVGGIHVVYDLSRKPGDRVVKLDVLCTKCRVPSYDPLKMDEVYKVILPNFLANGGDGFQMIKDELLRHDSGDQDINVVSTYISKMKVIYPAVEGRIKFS

T3: rhCD73 bound to his-tag magnet beads (human, UniProt P21589 27-549, limits assumed)
T3 sequence: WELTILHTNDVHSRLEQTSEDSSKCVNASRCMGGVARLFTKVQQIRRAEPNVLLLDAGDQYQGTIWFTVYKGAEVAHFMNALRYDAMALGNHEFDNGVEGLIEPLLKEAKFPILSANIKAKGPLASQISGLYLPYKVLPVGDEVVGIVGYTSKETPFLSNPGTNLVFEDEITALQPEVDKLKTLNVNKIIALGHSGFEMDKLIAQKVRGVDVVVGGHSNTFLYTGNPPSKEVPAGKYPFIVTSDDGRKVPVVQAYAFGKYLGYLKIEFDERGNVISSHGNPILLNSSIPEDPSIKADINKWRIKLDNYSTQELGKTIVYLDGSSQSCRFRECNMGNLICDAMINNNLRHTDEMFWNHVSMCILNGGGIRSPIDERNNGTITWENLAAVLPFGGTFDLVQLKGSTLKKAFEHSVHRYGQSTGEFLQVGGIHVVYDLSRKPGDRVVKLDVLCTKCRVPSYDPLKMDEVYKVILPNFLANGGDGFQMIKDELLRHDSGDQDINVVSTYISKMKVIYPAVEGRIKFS

T4: cynomolgus CD73 on transfected CHO cells (cynomolgus, UniProt P21589 27-549 (human entry))
T4 construct: also called CHO-cynoCD73; cyno CD73 positive CHO cells
T4 chain: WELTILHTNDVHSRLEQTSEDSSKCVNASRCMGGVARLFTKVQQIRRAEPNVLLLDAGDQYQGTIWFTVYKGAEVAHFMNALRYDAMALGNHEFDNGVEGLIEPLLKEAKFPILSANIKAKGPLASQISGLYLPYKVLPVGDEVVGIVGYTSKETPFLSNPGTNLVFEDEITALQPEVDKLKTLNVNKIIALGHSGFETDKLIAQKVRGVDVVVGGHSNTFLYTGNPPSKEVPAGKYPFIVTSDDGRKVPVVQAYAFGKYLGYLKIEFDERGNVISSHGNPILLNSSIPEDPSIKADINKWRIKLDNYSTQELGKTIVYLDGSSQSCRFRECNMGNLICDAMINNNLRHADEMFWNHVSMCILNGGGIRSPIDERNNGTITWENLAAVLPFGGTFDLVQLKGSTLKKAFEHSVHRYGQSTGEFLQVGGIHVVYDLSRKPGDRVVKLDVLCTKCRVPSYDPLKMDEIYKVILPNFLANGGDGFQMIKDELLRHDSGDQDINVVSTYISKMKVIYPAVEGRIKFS


Key:
[1] = biological target: T1, N-terminal domain of hCD73 (residues …); assay: SPR, mAb captured on protein A
Experimental: For these experiments, protein A (Pierce) was immobilized to a density of 3000 — 4000 RU on flow cells 1-4 of a CM5 sensor chip (GE Healthcare) using standard ethyl(dimethylaminopropyl) carbodiimide (EDC)/N-hydroxysuccinimide (NHS) chemistry, with ethanolamine blocking, in a running buffer of 0.01 M HEPES pH 7.4, 0.15 M NaCl, 3 mM EDTA, 0.005% v/v tween 20. […] The running buffer for the kinetic experiments was 10 mM sodium phosphate, 130 mM sodium chloride, 0.05% tween 20, pH 7.1. The surfaces were regenerated after each cycle using two 30 s pulses of 10 mM glycine pH 1.5 at a flow rate of 30 μl/min. Sensogram data was double-referenced and then fitted to a 1:1 Langmuir model using Biacore T100 evaluation software v2.0.4, to determine the association rate constant (ka), the dissociation rate constant (kd), and the equilibrium dissociation constant (KD).

[2] = biological target: T2, human CD73 on cells (Calu6, NCI-H292, …); assay: binding titration on Calu6 cells, average of 2-6 experiments
Experimental: (§1) Titration binding curves were produced with CD73 antibodies on Calu6 (CD73 endogenous expressors; human pulmonary adenocarcinoma cell line), DMS114 (CD73 negative; human small cell lung cancer cell line), CHO-cynoCD73 (cynoCD73-transfected) and CHO-K1 (cynoCD73 negative), cells using Alexa Fluor® 647 Goat Anti-Human IgG (H+L) as a secondary antibody, Invitrogen Cat#A-21445, using the following method: 100000 cells were plated in 100 uL PBS+2% FBS per well and blocked for 20 min. Using a U-bottom 96-deep well plate, volumes of antibody and PBS+2% FBS were combined as dictated by Table 12 below.
(§2) An 8-point serial dilution was performed by diluting a sixth of the volume (90 uL) into 450 μL PBS+2% FBS. The cell plate was spun down for 5 minutes at 1500 rpm. 100 uL of diluted antibody was added per well of the plate. 100 uL PBS+2% FBS were added to all other wells. […] The plates were spun down at 1500 rpm for 5 min and washed in 200 uL PBS +2% FBS per well. The plates were washed again, resuspended in 200 uL 2% FBS in PBS per well and the samples were run.

[3] = biological target: T3, rhCD73 bound to his-tag magnet beads; assay: cell-based or functional assay
[4] = biological target: T2, human CD73 on cells (Calu6, NCI-H292, …); assay: cell-based or functional assay
[5] = biological target: T4, cynomolgus CD73 on transfected CHO cells; assay: flow cytometry, CHO-cynoCD73 cells, anti-human IgG secondary (unstained 4.81, sec only 18.5)
[6] = biological target: T4, cynomolgus CD73 on transfected CHO cells; assay: flow cytometry, CHO-cynoCD73 cells, anti-human IgG secondary; column 'Kd (ng/mL)'
[7] = biological target: T4, cynomolgus CD73 on transfected CHO cells; assay: flow cytometry, CHO-cynoCD73 cells
Experimental: as §1, §2

[8] = biological target: T2, human CD73 on cells (Calu6, NCI-H292, …); assay: cell-based or functional assay; remark: listed apart in the source
[9] = biological target: T2, human CD73 on cells (Calu6, NCI-H292, …); assay: flow cytometry, Calu6 cells, anti-human IgG secondary (unstained -8.27, sec only 30.3)
[10] = biological target: T2, human CD73 on cells (Calu6, NCI-H292, …); assay: cell-based or functional assay; remark: listed apart in the source

Binder | Kd [1] | koff [1] | kon [1] | EC50 [2] [nM] | EC50 (nM), inhibition of bead-bound rhCD73 enzymatic activity [3] [nM] | EC50 (nM), CD73 internalization, Calu6, 2 h [4] [nM] | Ymax, CD73 internalization, Calu6, 2 h [4] | EC50 Calu6 inhibition [8] [nM] | EC50 SKMEL24 inhibition [8] [nM] | Ymax, cAMP HTRF assay [10] | IC50 (nM), cAMP HTRF assay, Calu-6 with HEK293/A2AR cells [10] [nM] | EC50 H292 inhibition [8] [nM] | other results
4D4 (antibody, human IgG2, kappa, IgG2 from hybridoma; also called 4D4-1) heavy: QVQLVESGGGVVQPGRSLRLSCAASGFTFSNYGMHWVRQAPGKGLEWVAVIWYDESNKYYADSVKGRFTISRDNSKNTLFLQMNSLRAEDTAVYYCARGYNSRWYPDAFDIWGQGTMVTVSSASTKGPSVFPLAPCSRSTSESTAALGCLVKDYFPEPVTVSWNSGALTSGVHTFPAVLQSSGLYSLSSVVTVPSSNFGTQTYTCNVDHKPSNTKVDKTVERKCCVECPPCPAPPVAGPSVFLFPPKPKDTLMISRTPEVTCVVVDVSHEDPEVQFNWYVDGVEVHNAKTKPREEQFNSTFRVVSVLTVVHQDWLNGKEYKCKVSNKGLPAPIEKTISKTKGQPREPQVYTLPPSREEMTKNQVSLTCLVKGFYPSDIAVEWESNGQPENNYKTTPPMLDSDGSFFLYSKLTVDKSRWQQGNVFSCSVMHEALHNHYTQKSLSLSPGK light: not shown | 9.4 nM and 6.2 nM | 0.00077 s⁻¹ and 0.00049 s⁻¹ | 82000 M⁻¹ s⁻¹ and 79000 M⁻¹ s⁻¹ | 0.82 | 5.31 | 0.38 | 104 % of 100 nM 11F11 | – | – | – | – | – | –
11F11 (antibody, human IgG2, kappa, V domains shown, Human IgG2 from hybridoma) VH: QVQLVESGGGVVQPGRSLRLSCATSGFTFSNYGMHWVRQAPGKGLEWVAVILYDGSNKYYPDSVKGRFTISRDNSKNTLYLQMNSLRAEDTAVYYCARGGSSWYPDSFDIWGQGTMVTVSS VL: DIQMTQSPSSLSASVGDRVTITCRASQGISSWLAWYQQKPEKAPKSLIYAASSLQSGVPSRFSGSGSGTDFTLTISSLQPEDFATYYCQQYNSYPLTFGGGTKVEIKR | 1.6 nM and 0.56 nM | – | – | – | 3.98 | 0.58 | 98 % of 100 nM 11F11 | 0.7 | 3.15 | 76 % of 100 nM 11F11 | – | – | MFI at 0.07 ng/mL antibody [5]: 200; MFI at 0.43 ng/mL antibody [5]: 342; MFI at 2.57 ng/mL antibody [5]: 670; MFI at 15.43 ng/mL antibody [5]: 1150; MFI at 92.59 ng/mL antibody [5]: 1470; MFI at 555.56 ng/mL antibody [5]: 1640; MFI at 3333.33 ng/mL antibody [5]: 1990; MFI at 20000 ng/mL antibody [5]: 2660; Kd [6]: 0.0207 µg/mL; EC50 [7]: 0.58 nM; MFI at 0.07 ng/mL antibody [9]: 788; MFI at 0.43 ng/mL antibody [9]: 1290; MFI at 2.57 ng/mL antibody [9]: 2250; MFI at 15.43 ng/mL antibody [9]: 4830; MFI at 92.59 ng/mL antibody [9]: 12100; MFI at 555.56 ng/mL antibody [9]: 27400; MFI at 3333.33 ng/mL antibody [9]: 29700; MFI at 20000 ng/mL antibody [9]: 36600
11A6 (antibody, human IgG1, kappa, V domains shown, IgG1za from hybridoma; also called 11A6-1) VH: EVQLVESGGNLVQPGRSLRLSCAASGFTFDDYAMHWVRQAPGKGLEWVSGISWNNNDIGYADSVKGRFIISRDNAKNSLYLQMNSLRPEDTALYYCVKGYYVILTGLDYWGQGTPVTVSS VL: DIQMTQSPSSLSASVGDRVTITCRASQGISSWLAWYQQKPEKAPKSLIYAASSLQSGVPSRFSGSGSGTDFTLTISSLQPEDFATYYCQQYNSYPLTFGGGTKVEIKR | 140 nM | 0.0076 s⁻¹ | 55000 M⁻¹ s⁻¹ | 1.93 | 3.12 | – | – | 2.21 | – | 84 % of 100 nM 11F11 | 4.87 | – | –
7A11 (antibody, human IgG1, kappa, V domains shown, IgG1za from hybridoma; also called 7A11-1) VH: EVQLVESGGGLVQTGRSLRLSCAASGFTFDDYAMHWVRQAPGKGLEWVSDISWNSDIIGYADSVKGRFTISRDNAKNSLYLQMNSLRAEDTALYYCAKDIYGSGSSFFDYWGQGILVTVSS VL: DIQMTQSPSSLSASVGDRVTITCRASQYISSWLAWYQQKPEKAPKSLIYAASSLQSGVPSRFSGSGSGTDFTLTISSLQPEDFATYYCQQYHSYPPTFGQGTRLEIKR | 0.43 nM | 0.00038 s⁻¹ | 880000 M⁻¹ s⁻¹ | 0.35 | 2.86 | 2.59 | 50 % of 100 nM 11F11 | 0.95 | 3.72 | 45 % of 100 nM 11F11 | 0.95 | 1.31 | –
5F8 (antibody, human IgG1, kappa, V domains shown, IgG1za from hybridoma; predominant light chain VK1, VK2 also expressed; also called 5F8-1) VH: EVQLVESGGGLVQPGGSLRLSCAASGFTFSSYWMHWVRQAPGKGLVWVSRIISDGSSTGYADSVKGRFTISRDNAKNTLYLQMNSLRAEDTAVYYCAREFSSGWYFDYWGQGTLVTVSS VL: AIQLTQSPSSLSASVGDRVTITCRASQGISSALAWYQQKPGKAPKLLIYDASSLESGVPSRFSGSGSGTDFTLTISSLQPEDFATYYCQQFSSYPRTFGQGTKVEIKR | 41 nM | 0.006 s⁻¹ | 150000 M⁻¹ s⁻¹ | 11.7 | 5.76 | – | – | 8.1 | 110 | 80 % of 100 nM 11F11 | 13.2 | 13.5 | –

Source: US20230051701A1 (Bristol-Myers Squibb, published 2023)
